Laboratory results as given in PMC6783313.

Biological target: ClpP1(S98A) from Listeria monocytogenes (Listeria monocytogenes)
Assay: cryo-EM structure

ClpP1(S98A) from Listeria monocytogenes (natural protein)
stoichiometry N: 7
